Molecular target: spike_sars2 S (UniProt P0DTC2)

| Substance | effect of a mutation on the interaction |
| --- | --- |
| Endoplasmic reticulum chaperone BiP (Homo sapiens), P11021 R197H | decreasing interaction strength |
| Endoplasmic reticulum chaperone BiP (Homo sapiens), P11021 G227D | decreasing interaction strength |

— IntAct's records for PubMed 33965375
